T1: Recombinant human ADAM12 (Acro Biosystems, AD2-H5228) (human, UniProt O43184 208-708)
T1 sequence (looked up): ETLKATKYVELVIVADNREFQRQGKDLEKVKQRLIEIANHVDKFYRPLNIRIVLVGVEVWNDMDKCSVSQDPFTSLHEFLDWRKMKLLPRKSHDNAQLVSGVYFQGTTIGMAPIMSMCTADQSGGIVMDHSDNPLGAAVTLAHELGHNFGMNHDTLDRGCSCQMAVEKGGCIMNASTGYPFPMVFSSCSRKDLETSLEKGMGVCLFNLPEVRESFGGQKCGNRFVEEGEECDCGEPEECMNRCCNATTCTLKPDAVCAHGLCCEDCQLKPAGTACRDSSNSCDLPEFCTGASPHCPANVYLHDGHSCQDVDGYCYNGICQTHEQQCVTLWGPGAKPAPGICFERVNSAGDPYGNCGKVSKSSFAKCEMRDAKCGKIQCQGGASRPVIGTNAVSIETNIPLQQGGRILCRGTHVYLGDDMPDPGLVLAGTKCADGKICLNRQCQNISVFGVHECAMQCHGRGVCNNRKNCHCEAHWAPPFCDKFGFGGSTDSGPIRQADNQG

T2: Full-length human ADAM8 on cells (HEK293-ADAM8 stable or transfected cells); also endogenous ADAM8 of breast … (human, UniProt P78325 17-824)
T2 construct: On cells the proform, the active form and the remnant form can all be present; also called native ADAM8; HEK293-A8
T2 sequence: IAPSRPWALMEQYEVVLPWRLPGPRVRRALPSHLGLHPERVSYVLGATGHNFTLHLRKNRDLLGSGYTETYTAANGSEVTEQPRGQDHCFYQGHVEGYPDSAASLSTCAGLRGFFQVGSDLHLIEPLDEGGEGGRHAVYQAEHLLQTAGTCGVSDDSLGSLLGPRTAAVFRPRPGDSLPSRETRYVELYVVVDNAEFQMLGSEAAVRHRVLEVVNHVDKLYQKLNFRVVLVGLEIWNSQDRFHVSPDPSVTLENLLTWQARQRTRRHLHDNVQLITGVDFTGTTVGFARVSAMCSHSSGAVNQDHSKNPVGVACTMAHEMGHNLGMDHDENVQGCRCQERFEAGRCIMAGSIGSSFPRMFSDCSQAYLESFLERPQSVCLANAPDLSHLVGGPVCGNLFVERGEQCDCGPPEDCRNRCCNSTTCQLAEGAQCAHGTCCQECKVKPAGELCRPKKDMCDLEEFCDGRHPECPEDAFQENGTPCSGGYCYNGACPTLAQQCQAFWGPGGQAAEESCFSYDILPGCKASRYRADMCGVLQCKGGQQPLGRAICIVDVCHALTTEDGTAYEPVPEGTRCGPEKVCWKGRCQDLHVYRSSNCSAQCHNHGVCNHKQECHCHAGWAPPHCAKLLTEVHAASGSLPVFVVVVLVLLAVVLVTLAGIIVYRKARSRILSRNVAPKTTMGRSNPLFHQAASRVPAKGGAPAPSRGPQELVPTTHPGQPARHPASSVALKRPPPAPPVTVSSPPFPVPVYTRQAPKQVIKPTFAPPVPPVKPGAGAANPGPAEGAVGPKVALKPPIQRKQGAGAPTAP

T3: Recombinant human ADAM9 (R&D Systems, 939-AD-020) (human, UniProt Q13443 29-697)
T3 sequence (looked up): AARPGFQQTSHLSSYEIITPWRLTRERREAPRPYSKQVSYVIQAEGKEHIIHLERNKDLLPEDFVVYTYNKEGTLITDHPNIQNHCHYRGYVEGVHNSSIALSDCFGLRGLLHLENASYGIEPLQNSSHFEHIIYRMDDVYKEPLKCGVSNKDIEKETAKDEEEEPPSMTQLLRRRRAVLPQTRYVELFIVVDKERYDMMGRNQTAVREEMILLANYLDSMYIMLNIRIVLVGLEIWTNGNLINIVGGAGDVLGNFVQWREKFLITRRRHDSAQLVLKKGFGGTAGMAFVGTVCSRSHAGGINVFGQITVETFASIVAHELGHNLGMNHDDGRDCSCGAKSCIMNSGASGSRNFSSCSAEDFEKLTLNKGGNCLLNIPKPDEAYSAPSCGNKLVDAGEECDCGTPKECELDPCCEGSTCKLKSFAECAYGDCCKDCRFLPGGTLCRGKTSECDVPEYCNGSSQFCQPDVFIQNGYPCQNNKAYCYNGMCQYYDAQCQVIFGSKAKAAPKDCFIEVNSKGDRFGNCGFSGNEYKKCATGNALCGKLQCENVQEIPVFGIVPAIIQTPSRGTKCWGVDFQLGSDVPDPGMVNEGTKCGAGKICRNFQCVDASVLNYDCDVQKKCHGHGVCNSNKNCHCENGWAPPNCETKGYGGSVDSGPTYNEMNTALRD


Experiments:
[1] = target: T1, Recombinant human ADAM12 (Acro …); test: ELISA, coated recombinant ADAM12
[2] = target: T2, Full-length human ADAM8 on cells …; test: FACS, HEK293-ADAM8 cells, antibody 1 µg/ml
[3] = target: T3, Recombinant human ADAM9 (R&D Systems, …); test: ELISA, coated recombinant ADAM9

| Binder | OD 450nm [1] | binding result [1] | MFI [2] | OD 450nm [3] | binding result [3] |
| --- | --- | --- | --- | --- | --- |
| ADP2 (antibody, V domains shown, also called mADP2; mouse ADP2) VH: EVKLVESGGGLVQPGGSLSLSCAASGFSFPDYYMSWVRQPPGKALEWLGFIRDSANGYTTEYIASVKGRFTFSRDNSQSILYLQMNALRAEDSATYYCARYSRYYGMDYWGQGTSVTVSS VL: SIVMTQTPKILLVSAGDRVTITCKASQTVNYDVAWYQQKPGQSPKPVIYFASNRYTGVPDRFTGSGFGTDFTFTISTVQAEDLAVYFCQQDYSAPWTFGGGTKLEIK | 0.14 OD450nm | no binding (tested: 1 µg/ml) | 156 MFI | 0.07 OD450nm | no binding (tested: 1 µg/ml) |
| ADP13 (antibody, IgG1, V domains shown, also called mADP13; mouse ADP13) VH: EVQLQQSGPEMVKPGTSVKISCKASGYTFTDYYINWVKQSHGKSLEWIGDISPNIGGATYNPKFKGKAILTVDKSARTAYMELRSLTSEDSAVYCCTRGGSSYPYFYAMDYWGQGTSVTVSS VL: DIVMSQSPSSLAVSVGEKVTMSCKSSQSLLYSSNQKKYLAWYQQKPGQSPKLLIYWASTRESGVPDRFTGSGSGTDFTLTISSVKAEDLAVYYCQQFYSYPYTFGGGTKLEINR | 0.12 OD450nm | no binding (tested: 1 µg/ml) | 21.1 MFI | 0.12 OD450nm | no binding (tested: 1 µg/ml) |
| ADP3 (antibody, IgG1, V domains shown) VH: EVKLEESGGGLVQPGGSMKLSCAASGFTFSDAWMDWVRQSPEKGLEWVAEIRGKVNNLATYYVESVKGRFTISRDDSKSSVYLQMNSLRAEDTGIYYCLGRYDATYAMDYWGQGTSVTVSS VL: DVVMTQTPLSLPVSLGDQASISCRSSQSLVHSDGNTYLHWYLQKPGQSPKLLIYKLSNRFSGVPDRFSGSGSGTDFTLKISRVEAEDLGVYFCSQSTHVPWTFGGGTKLEIK | 0.16 OD450nm | – | 96.5 MFI | 0.15 OD450nm | – |

Reference: US20220227882A1 (TRUSTEES OF TUFTS COLLEGE, published 2022)
